# Results taken from the supplement of paper PMC7877785.
# ± gives the uncertainty stated by the source.
# Assay: self-splicing fitness, log relative to wild type (ln ratio); higher = more splicing; Tetrahymena group I intron in knt gene, E. coli kanamycin selection, DiMSum; sequences stand for … in CUCUCU…GGAGGGAAAAGUUAUCAGGCAUGCACCUGGUAGCUAGUCUUUAAACCAAUAGAUUGCAUCGGUUUAAAAGGCAAGACCGUCAAAUUGCGGGAAAGGGGUCAACAGCCGUUCAGUACCAAGUCUCAGGGGAAACUUUGAGAUGGCCUUGCAAAGGGUAUGGUAAUAAGCUGACGGACAUGGUCCUAACCACGCAGCCAAGUCCUAAGUCAACAGAUCUUCUGUUGAUAUGGAUGCAGUUCACAGACUAAAUGUCGGUCGGGGAAGAUGUAUUCUUCUCAUAAGAUAUAGUCGGACCUCUCCUUAAUGGGAGCUAGCGGAUGAAGUGAUGCAACACUGGAGCCGCUGGGAACUAAUUUGUAUGCGAAAGUAUAUUGAUUAGUUUUGGAGUACUCGUGGUCG
# Summary of the method: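 Fitness was computed with DiMSum as the error-weighted combination of replicate fold changes, kanamycin versus none, each normalised to wild type. The library randomised all eight intron nucleotides of the P1ex region, with the intron placed in the knt kanamycin-resistance gene on pET-22b(+) in E. coli BL21(DE3). Six replicate transformations were grown overnight at 37°C or 30°C on LB agar with or without 25 μg/mL kanamycin, plus 100 μg/mL carbenicillin, 50 μM IPTG and 0.2% rhamnose. Pooled colonies were amplicon-sequenced on an Illumina HiSeq 2500.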
Sequence,self-splicing fitness (ln) (30 °C),self-splicing fitness (ln) (37 °C)
AACAAGCAAUAUUACGCGAU,-3.61 ± 0.17,-1.57 ± 0.12
AACAAGCAAUAUUACGCGGG,-3.55 ± 0.14,-2.46 ± 0.15
AACAAGCAAUAUUACGGAGG,-3.19 ± 0.19,-0.738 ± 0.15
AACAAGCAAUAUUACGGCUG,-0.419 ± 0.059,-0.225 ± 0.086
AACAAGCAAUAUUACGGGAG,-2.51 ± 0.093,-1.96 ± 0.1
AACAAGCAAUAUUACGGGCA,-0.586 ± 0.058,-0.0288 ± 0.066
AACAAGCAAUAUUACGGGCC,-2.99 ± 0.25,0.104 ± 0.19
AACAAGCAAUAUUACGGUUU,-2.73 ± 0.1,-1.08 ± 0.086
AACAAGCAAUAUUACGUCGA,-1.27 ± 0.087,-0.532 ± 0.092
AACAAGCAAUAUUACGUGGU,-3.38 ± 0.12,-1.57 ± 0.1
AACAAGCAAUAUUACGUUGA,-3.31 ± 0.13,-1.95 ± 0.1
AACAAGCAAUAUUACGUUGU,-2.17 ± 0.074,-2.39 ± 0.13
AACAAGCAAUAUUACGUUUA,-2.45 ± 0.09,-1.07 ± 0.074
AACAAGCAAUAUUACGUUUU,-3.22 ± 0.08,-1.03 ± 0.067
AACCAGCAAUAUUACGACAC,-1.07 ± 0.08,-0.426 ± 0.1
AACCAGCAAUAUUACGACCC,-0.941 ± 0.1,0.421 ± 0.13
AACCAGCAAUAUUACGACCU,-0.404 ± 0.093,-0.0868 ± 0.1
AACCAGCAAUAUUACGAGGU,-3.14 ± 0.16,-2.53 ± 0.16
AACCAGCAAUAUUACGAUAC,-2.38 ± 0.084,-1.39 ± 0.11
AACCAGCAAUAUUACGAUCC,-0.433 ± 0.078,-0.358 ± 0.12
AACCAGCAAUAUUACGCAAA,-0.829 ± 0.1,-0.805 ± 0.11
AACCAGCAAUAUUACGCACG,-0.891 ± 0.055,-0.215 ± 0.078
AACCAGCAAUAUUACGCGGU,-4.38 ± 0.19,-2.43 ± 0.15
AACCAGCAAUAUUACGGAAG,-1.22 ± 0.066,0.117 ± 0.089
AACCAGCAAUAUUACGGAGU,-1.66 ± 0.048,-0.881 ± 0.064
AACCAGCAAUAUUACGGCAU,0.127 ± 0.053,0.376 ± 0.067

Sequence,self-splicing fitness (ln) (30 °C),self-splicing fitness (ln) (37 °C)
AACCAGCAAUAUUACGGCCU,0.12 ± 0.075,-0.853 ± 0.082
AACCAGCAAUAUUACGGUAU,-2 ± 0.071,-0.457 ± 0.08
AACCAGCAAUAUUACGUCGA,-0.87 ± 0.071,-0.757 ± 0.07
AACCAGCAAUAUUACGUGCA,-0.671 ± 0.055,-0.0717 ± 0.072
AACCAGCAAUAUUACGUUAU,-2.18 ± 0.055,-0.941 ± 0.058
AACGAGCAAUAUUACGAAGU,-2.75 ± 0.17,-2.86 ± 0.31
AACGAGCAAUAUUACGAGAU,-4.25 ± 0.36,-3.02 ± 0.3
AACGAGCAAUAUUACGAUGA,-3.91 ± 0.46,-2.08 ± 0.22
AACGAGCAAUAUUACGAUUG,-4.09 ± 0.23,-1.56 ± 0.23
AACGAGCAAUAUUACGCCUC,-2.71 ± 0.28,-1.53 ± 0.17
AACGAGCAAUAUUACGCCUU,-3.47 ± 0.16,-1.8 ± 0.11
AACGAGCAAUAUUACGCGAU,-3.04 ± 0.26,-1.99 ± 0.3
AACGAGCAAUAUUACGCGCG,-1.81 ± 0.28,-1.75 ± 0.28
AACGAGCAAUAUUACGGAAA,-3.63 ± 0.23,-2.65 ± 0.24
AACGAGCAAUAUUACGGACA,-2.38 ± 0.12,-1.57 ± 0.11
AACGAGCAAUAUUACGGAUA,-2.98 ± 0.22,-1.85 ± 0.29
AACGAGCAAUAUUACGGGUA,-2.96 ± 0.17,-0.912 ± 0.11
AACGAGCAAUAUUACGGUCG,-2.14 ± 0.13,-1.02 ± 0.14
AACGAGCAAUAUUACGUACU,-1.04 ± 0.067,-1.04 ± 0.079
AACGAGCAAUAUUACGUCCA,-2.92 ± 0.3,-1.92 ± 0.21
AACGAGCAAUAUUACGUGGA,-2.62 ± 0.33,-2.15 ± 0.19
AACGAGCAAUAUUACGUGGU,-4.57 ± 0.27,-2.94 ± 0.17
AACGAGCAAUAUUACGUUUA,-3.12 ± 0.2,-2.64 ± 0.21
AACUAGCAAUAUUACGAAAA,-1.53 ± 0.16,-1.75 ± 0.17
AACUAGCAAUAUUACGAAAG,-2.79 ± 0.15,-1.61 ± 0.18
AACUAGCAAUAUUACGAACG,-0.824 ± 0.083,-0.339 ± 0.12

Sequence,self-splicing fitness (ln) (30 °C),self-splicing fitness (ln) (37 °C)
AACUAGCAAUAUUACGAGCA,-1.68 ± 0.12,-0.209 ± 0.11
AACUAGCAAUAUUACGAUGC,-1.25 ± 0.12,-2.06 ± 0.25
AACUAGCAAUAUUACGAUUA,-0.307 ± 0.087,-0.0303 ± 0.11
AACUAGCAAUAUUACGAUUU,-0.0161 ± 0.059,-0.157 ± 0.075
AACUAGCAAUAUUACGCAGA,-3.43 ± 0.37,-0.413 ± 0.15
AACUAGCAAUAUUACGCCGA,-1.74 ± 0.18,-0.583 ± 0.18
AACUAGCAAUAUUACGCGAU,-2.64 ± 0.15,-2.22 ± 0.17
AACUAGCAAUAUUACGCGGG,-2.78 ± 0.15,-2.37 ± 0.19
AACUAGCAAUAUUACGCUUA,-0.632 ± 0.087,-0.749 ± 0.11
AACUAGCAAUAUUACGGACA,-0.804 ± 0.15,-0.48 ± 0.13
AACUAGCAAUAUUACGGAUA,-2.79 ± 0.25,-1.2 ± 0.23
AACUAGCAAUAUUACGGCAA,-1.01 ± 0.076,-0.905 ± 0.09
AACUAGCAAUAUUACGGUAG,-2.06 ± 0.11,0.0456 ± 0.12
AACUAGCAAUAUUACGGUGU,-1.77 ± 0.083,-0.956 ± 0.099
AACUAGCAAUAUUACGUAAG,-1.22 ± 0.084,-1.65 ± 0.11
AACUAGCAAUAUUACGUCAG,-3.51 ± 0.18,-1.57 ± 0.15
AACUAGCAAUAUUACGUCCC,-0.0622 ± 0.15,0.182 ± 0.16
AACUAGCAAUAUUACGUCCG,-1.74 ± 0.11,-0.228 ± 0.13
AAGAAGCAAUAUUACGAACA,-1.06 ± 0.16,-0.0339 ± 0.16
AAGAAGCAAUAUUACGACAA,-0.745 ± 0.098,-0.224 ± 0.12
AAGAAGCAAUAUUACGAGAA,-2.07 ± 0.26,-1.87 ± 0.19
AAGAAGCAAUAUUACGAUAA,-1.11 ± 0.12,-1.07 ± 0.15
AAGAAGCAAUAUUACGAUGC,-2.61 ± 0.13,-1.76 ± 0.17
AAGAAGCAAUAUUACGCGGC,-3.5 ± 0.49,-2.17 ± 0.44
